Laboratory results taken from PMC10482750, “Assessment of the roles of Spt5-nucleic acid contacts in promoter proximal pausing of RNA polymerase II” (The Journal of Biological Chemistry, 2023).
Changes are numbered by the printed parent chain. In names and notes the source's numbering stands.

B1: DRB sensitivity-inducing factor (DSIF), wild type (Spt5 and Spt4) (complex)
chain 1: not shown
chain 2: MAFDAIPKDLRGLRACLVCSLVKSFDQFETDGCENCEEFLRMKNNKDNVYDHTSNNFDGIIALTTPTDSWVAKWQRLSRFTRGIYAISVSGTLPQSTLRDMKNRGIVYKSRDRSQR
notes: Spt5, Drosophila; Spt4, Drosophila; No tag cleavage is described; A ~100-kDa Spt5 degradation product lacking the acidic N-terminal region is in each preparation; also called WT DSIF; source: E. coli Rosetta (DE3) pLysS, purified (Talon, anti-FLAG)
B2: DSIF NGN-Asp mutant (complex)
chain 1: not shown
chain 2: B1 chain 2
notes: Spt5, Drosophila, two basic residues of the NGN domain changed to aspartic acid; d numbers are Drosophila Spt5; Spt4, Drosophila; as in m2; source: E. coli Rosetta (DE3) pLysS, purified (Talon, anti-FLAG)
B3: DSIF Spt4 (R79E, R82E, K109E) mutant (complex)
chain 1: not shown
chain 2: B1 chain 2 with R79E, R82E, K109E
notes: Spt5, Drosophila, wild type; as in m2; Spt4, Drosophila, three basic residues changed to glutamic acid; also called Spt4 mutant; source: E. coli, purified as WT DSIF (Talon, anti-FLAG)

Target: T1, negative elongation factor (NELF): NELF-A, NELF-B, NELF-D, NELF-E (Drosophila, UniProt Q86NP2 1-1251; Q9Y113 1-594; Q24134 1-578; P92204 1-280)
T1 construct: NELF-A, Drosophila; NELF-B, Drosophila; NELF-D, Drosophila; NELF-E, Drosophila; No tag cleavage is described; source: Sf9, baculovirus, purified (Ni-NTA, anti-FLAG); copies: + + +
T1 sequence (Q86NP2 whole entry, chain 1 of 4): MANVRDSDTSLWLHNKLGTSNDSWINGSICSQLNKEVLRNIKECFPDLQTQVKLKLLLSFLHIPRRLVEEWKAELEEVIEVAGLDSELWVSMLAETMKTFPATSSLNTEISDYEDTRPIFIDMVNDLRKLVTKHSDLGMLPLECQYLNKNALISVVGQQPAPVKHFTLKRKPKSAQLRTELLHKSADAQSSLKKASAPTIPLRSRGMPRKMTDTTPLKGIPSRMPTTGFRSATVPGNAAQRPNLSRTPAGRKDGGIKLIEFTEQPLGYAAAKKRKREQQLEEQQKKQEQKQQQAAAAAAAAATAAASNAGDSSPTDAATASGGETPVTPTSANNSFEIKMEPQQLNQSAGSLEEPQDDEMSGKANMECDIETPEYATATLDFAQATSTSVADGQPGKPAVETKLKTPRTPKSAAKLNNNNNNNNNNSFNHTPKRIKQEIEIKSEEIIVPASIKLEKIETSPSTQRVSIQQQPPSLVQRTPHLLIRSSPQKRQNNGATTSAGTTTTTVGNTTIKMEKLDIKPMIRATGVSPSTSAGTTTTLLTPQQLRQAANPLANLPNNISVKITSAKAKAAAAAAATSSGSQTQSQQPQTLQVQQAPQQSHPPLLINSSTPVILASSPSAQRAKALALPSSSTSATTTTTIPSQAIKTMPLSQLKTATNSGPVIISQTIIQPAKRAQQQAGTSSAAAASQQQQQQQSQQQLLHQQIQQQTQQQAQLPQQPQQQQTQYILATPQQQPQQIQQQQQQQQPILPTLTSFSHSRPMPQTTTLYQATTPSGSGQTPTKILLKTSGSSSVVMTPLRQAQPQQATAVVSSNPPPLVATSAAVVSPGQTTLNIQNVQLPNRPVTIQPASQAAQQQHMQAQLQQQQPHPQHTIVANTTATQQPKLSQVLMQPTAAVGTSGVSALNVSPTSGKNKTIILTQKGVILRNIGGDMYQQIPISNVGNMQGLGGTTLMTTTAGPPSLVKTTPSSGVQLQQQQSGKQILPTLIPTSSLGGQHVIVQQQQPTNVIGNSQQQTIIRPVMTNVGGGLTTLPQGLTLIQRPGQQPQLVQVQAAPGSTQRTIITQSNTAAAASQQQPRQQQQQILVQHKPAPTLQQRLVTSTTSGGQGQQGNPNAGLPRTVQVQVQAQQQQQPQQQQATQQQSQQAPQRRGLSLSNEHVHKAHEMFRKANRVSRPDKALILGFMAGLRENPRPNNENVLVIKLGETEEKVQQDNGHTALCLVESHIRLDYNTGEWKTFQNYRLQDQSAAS
T1 sequence (Q9Y113 whole entry, chain 2 of 4): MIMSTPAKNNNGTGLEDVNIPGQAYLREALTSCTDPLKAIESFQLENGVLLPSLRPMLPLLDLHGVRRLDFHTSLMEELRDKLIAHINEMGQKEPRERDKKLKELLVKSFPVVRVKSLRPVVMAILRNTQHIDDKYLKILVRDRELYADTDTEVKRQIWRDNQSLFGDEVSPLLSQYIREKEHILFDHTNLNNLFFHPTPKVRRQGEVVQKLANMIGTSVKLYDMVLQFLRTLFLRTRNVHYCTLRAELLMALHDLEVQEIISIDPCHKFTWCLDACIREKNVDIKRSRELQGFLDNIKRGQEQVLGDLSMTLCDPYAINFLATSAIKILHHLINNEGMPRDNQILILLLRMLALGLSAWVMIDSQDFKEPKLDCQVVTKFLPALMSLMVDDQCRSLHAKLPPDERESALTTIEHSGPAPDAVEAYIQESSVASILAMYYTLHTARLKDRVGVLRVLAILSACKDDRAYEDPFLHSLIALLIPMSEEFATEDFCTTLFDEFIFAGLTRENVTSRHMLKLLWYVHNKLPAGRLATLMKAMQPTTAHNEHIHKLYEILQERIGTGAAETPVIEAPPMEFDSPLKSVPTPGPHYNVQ
T1 sequence (Q24134 whole entry, chain 3 of 4): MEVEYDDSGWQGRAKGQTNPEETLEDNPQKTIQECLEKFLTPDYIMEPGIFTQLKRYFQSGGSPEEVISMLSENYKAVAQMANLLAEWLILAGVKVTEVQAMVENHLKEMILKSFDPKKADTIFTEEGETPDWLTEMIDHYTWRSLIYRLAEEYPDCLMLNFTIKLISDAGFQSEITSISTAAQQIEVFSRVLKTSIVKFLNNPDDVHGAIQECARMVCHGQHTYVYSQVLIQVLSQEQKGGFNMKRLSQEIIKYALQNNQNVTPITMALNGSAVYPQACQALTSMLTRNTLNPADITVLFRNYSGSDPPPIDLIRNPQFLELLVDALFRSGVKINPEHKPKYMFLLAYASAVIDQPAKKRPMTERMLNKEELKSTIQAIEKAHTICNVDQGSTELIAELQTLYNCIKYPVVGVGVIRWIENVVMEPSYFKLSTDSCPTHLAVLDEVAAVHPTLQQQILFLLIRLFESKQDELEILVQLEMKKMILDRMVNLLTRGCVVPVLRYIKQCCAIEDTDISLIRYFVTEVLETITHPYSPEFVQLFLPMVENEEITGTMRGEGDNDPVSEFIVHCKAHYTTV
T1 sequence (P92204 whole entry, chain 4 of 4): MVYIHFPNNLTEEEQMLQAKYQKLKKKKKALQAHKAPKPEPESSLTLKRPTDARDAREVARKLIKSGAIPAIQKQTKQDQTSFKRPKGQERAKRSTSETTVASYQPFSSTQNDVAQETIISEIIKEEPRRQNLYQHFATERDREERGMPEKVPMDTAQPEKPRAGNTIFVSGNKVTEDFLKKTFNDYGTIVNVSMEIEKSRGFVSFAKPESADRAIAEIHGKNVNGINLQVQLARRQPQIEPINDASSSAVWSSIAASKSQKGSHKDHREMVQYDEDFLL
Test: native gel or EMSA; stalled Pol II elongation complexes plus purified WT or mutant DSIF and NELF together (supershift); room temperature; Torula yeast RNA added; 4% native polyacrylamide gel run at 4 °C
Settings: both partners purified

Row | Binder | binding result
1 | B1 | binds
2 | B2 | binds
3 | B3 | binds
